Reference: patent publication US20200283491A1

Experiments:
Test in all cases: cell-based or functional assay
rat Y2 receptor (rat) = rat Y2 receptor (rat) (UniProt Q9ERC0)
[1] = target: mouse Y2 receptor (mouse) (UniProt P97295)
[2] = target: human Y1 receptor (human) (UniProt P25929)
[3] = target: rhesus monkey Y2 receptor (rhesus monkey) (UniProt Q9GK74)
Sequence of rhesus monkey Y2 receptor (rhesus monkey) (Q9GK74 whole entry): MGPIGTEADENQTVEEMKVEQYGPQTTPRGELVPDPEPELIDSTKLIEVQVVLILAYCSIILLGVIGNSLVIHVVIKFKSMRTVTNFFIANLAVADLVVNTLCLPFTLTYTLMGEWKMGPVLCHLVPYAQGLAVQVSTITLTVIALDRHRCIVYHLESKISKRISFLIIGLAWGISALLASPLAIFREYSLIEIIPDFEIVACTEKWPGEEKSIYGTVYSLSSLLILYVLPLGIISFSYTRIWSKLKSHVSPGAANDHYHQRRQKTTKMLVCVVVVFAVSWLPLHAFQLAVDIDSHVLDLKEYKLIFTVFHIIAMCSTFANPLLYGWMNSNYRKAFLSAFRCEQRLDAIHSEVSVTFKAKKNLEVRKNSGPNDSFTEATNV

Sequence of human Y1 receptor (human) (P25929 whole entry): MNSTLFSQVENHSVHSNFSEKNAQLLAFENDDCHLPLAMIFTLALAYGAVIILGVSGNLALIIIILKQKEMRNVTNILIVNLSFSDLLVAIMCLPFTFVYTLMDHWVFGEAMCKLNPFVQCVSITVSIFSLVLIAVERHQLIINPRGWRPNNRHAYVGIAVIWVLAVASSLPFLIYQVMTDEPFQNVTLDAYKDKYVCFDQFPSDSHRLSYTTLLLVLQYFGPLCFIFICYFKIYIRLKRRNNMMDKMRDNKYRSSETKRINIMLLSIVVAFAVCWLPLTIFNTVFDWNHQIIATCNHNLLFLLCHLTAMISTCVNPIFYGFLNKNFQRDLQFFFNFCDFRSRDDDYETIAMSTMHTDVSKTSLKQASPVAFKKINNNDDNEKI
Sequence of rat Y2 receptor (rat) (Q9ERC0 entry or part of it): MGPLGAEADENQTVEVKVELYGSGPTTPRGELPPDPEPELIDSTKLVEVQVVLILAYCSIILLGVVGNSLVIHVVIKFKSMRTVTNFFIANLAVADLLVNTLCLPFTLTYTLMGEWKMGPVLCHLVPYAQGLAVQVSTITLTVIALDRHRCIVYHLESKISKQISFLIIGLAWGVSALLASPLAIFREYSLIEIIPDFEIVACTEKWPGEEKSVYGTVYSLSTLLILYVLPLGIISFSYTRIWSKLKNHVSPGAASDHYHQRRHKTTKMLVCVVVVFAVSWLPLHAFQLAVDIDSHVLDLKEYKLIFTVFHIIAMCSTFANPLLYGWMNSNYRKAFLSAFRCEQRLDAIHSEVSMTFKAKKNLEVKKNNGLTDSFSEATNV
Sequence of mouse Y2 receptor (mouse) (P97295 whole entry): as the sequence (Q9ERC0 entry or part of it) above, with L4V, L20P, S23P, P25H, V52I, Q163R, V175I, K247R, T266M, L371P counted along it

Cross-species potency (EC50 nM), cAMP assay (rat Y2 receptor (rat)): 0.5 nM | Cross-species potency (EC50 nM), cAMP assay [1]: 0.03 nM | Human isoform potency (EC50 nM), cAMP assay [2]: 66.4 nM | Cross-species potency (EC50 nM), cAMP assay [3]: 0.06 nM
Substance: PYY3-36 (from UniProt P10082 31-64) (peptide)
